We go through ten molecules from patent publication US20260035464A1 (STAIDSON BIOPHARMA, published 2026).

Where a chain is given by its changes, count along the chain named.

Experiment [1] has as its target T1, huBTLA as coated in the binding ELISA of Example 3 (tag not stated) (human, UniProt Q7Z6A9 31-157).
T1 construct: Detection was with anti-human IgG Fc
T1 sequence: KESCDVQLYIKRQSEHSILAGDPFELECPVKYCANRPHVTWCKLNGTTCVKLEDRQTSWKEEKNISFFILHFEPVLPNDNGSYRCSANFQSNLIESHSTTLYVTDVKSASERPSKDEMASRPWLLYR
Kind of experiment: ELISA, plate coated with huBTLA, detection with goat anti-human IgG Fc-AP, OD405. The method, then:
(§1) BTLA binding of purified recombinant chimeric antibodies by ELISA: The huBTLA and rhesus monkey BTLA antigen binding ELISA was performed on the purified recombinant chimeric antibodies. Briefly, 384-well, clear flat bottom high binding plates (Corning, cat #3700) were coated overnight at 4° C. with 0.333 μg/mL of huBTLA or rhesus monkey BTLA in PBS. The following purified process was performed as described in ELISA binding assay in Example 2, except that the secondary antibody was goat anti human IgG Fc-AP (Southern Biotech, cat #2014-04).

Experiment [2] addresses T1, huBTLA as coated in the binding ELISA …. The experiment in a line: ELISA, huBTLA coated at 0.333 ug/mL, anti-human IgG Fc-AP detection. The method, then: as §1
Experiment [3] has as its target T2, rhesus monkey BTLA extracellular domain protein with His tag (Sino Biological, cat #90250-C08H) (rhesus monkey, UniProt G7MKA9 31-157).
T2 construct: extracellular domain; Bought protein; also called His-tag-rhesus monkey BTLA; not shown: His tag
T2 sequence: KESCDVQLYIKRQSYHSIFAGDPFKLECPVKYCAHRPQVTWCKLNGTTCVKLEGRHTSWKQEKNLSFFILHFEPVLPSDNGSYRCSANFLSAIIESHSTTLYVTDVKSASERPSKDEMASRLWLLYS
Kind of experiment: ELISA, rhesus monkey BTLA coated at 0.333 ug/mL, anti-human IgG Fc-AP detection. The method, then:
as §1

Experiment [4] addresses T3, human BTLA (Uniprot Q7Z6A9) expressed on cells (human, UniProt Q7Z6A9 31-289). Kind of experiment: cell-based or functional assay.
Experiment [5] concerns the target T2, rhesus monkey BTLA extracellular domain …. Kind of experiment: ELISA, plate coated with rhesus monkey BTLA, detection with goat anti-human IgG Fc-AP, OD405. Here is the method:
as §1

The target in experiment [6] is T4, human BTLA extracellular domain with C-terminal 10xHis tag (human, UniProt Q7Z6A9 31-157).
T4 construct: also called HuBTLA-His; His-tag-huBTLA
T4 sequence: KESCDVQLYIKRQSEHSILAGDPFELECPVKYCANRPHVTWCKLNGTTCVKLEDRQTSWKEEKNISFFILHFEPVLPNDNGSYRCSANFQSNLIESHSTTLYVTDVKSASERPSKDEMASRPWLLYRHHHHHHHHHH
Kind of experiment: BLI (Octet RED96), antibody captured on AHC biosensor, His-tag-huBTLA in solution, 1:1 model. Here is the method: (§2) The following kinetic assay was performed using anti-human IgG Fc capture (AHC) biosensors (ForteBio) in kinetics buffer (PBS, 0.1% Tween-20 and 1% bovine serum albumin): (a) antibody (2 μg/mL) for 300 sec, (b) baseline for 120 sec, (c) association with purified His-tag-huBTLA (2.5, 0.5 and 0 μg/mL) and His-tag-rhesus monkey BTLA (Sino Biologcal, cat #90250-C08H) (2.5, 0.5 and 0 μg/mL) for 420 sec and (d) dissociation for 1200 sec. Data fitting and analysis was performed with Octet data analysis software 8.0 (ForteBio) using a 1:1 binding model after Savitzky-Golay filtering.

In experiment [7] the target is T5, human BTLA extracellular domain with C-terminal mouse IgG2a Fc tag (human; mouse, UniProt Q7Z6A9 31-157).
T5 construct: also called huBTLA with mIgG2a Fc tag; not shown: mouse IgG2a Fc, C-terminal
T5 sequence: T1 sequence
The experiment in a line: blocking ELISA, huBTLA-mIgG2a Fc coated; competitor huHVEM-His (2 ug/ml). Here is the method: HVEM blocking by purified recombinant chimeric antibodies by ELISA: Human HVEM (huHVEM) blocking ELISA was performed on purified recombinant chimeric anti-BTLA antibodies. Briefly, 384-well, clear flat bottom high binding plates (Corning, cat #3700) were coated overnight at 4° C. with 0.333 μg/mL purified huBTLA with mIgG2a Fc tag in PBS (coating solution). After removing the coating solution, the plates were blocked by adding blocking buffer and incubated at 37° C. for 1 hour. Plates were then washed 3 times with wash buffer. Serial dilution of purified chimeric antibodies in PBS were added to individual well followed by incubation at 37° C. for 1 hour. Plates were washed 3 times with wash buffer. Then 30 μL per well of 2 μg/ml human HVEM with His tag (Sino Biological, cat #10334-H08H) in assay buffer was added into the reaction and incubated for 1 hour. Plates were washed 3 times with wash buffer. Then 30 μL per well of mouse anti-his-AP (Southern Biotech, cat: 4603-04) at 1:500 dilution in ELISA diluent was added, and incubated at 37° C. for 30 min, then the plates were washed 5 times with wash buffer and developed for 30 minutes with 30 μL per well of pNPP substrate. Plates were analyzed with a Bio-TEK at 405 nm. The blocking IC₅₀ value represents the antibody concentration that inhibited 50% of huHVEM binding to coated human BTLA.

The target of experiment [8] is T3, human BTLA (Uniprot Q7Z6A9) expressed …. Kind of experiment: flow cytometry on huBTLA-overexpressing Expi293 cells, MFI. Here is the method: Expi293 cells stably overexpressing huBTLA were incubated with the chimeric anti-BTLA antibodies 83F2 or 86B7 in PBS containing 0.5% BSA, 1 mM EDTA, and 0.1% sodium azide (FACS buffer) for 30 minutes at 4° C. The cells were washed, and then incubated with 10 nM phycoerythrin (PE) conjugated anti-Human Fc Ab (BioLegend, cat #409304) for 20 minutes at 4° C. Cells were washed and then analyzed by flow cytometry with Attune (ThermoFisher Scientific). Data were analyzed with FlowJo software. Antibody binding is represented as median fluorescence intensity (MFI).
FACS based binding assays of humanized anti-BTLA antibodies were performed as described above in Example 3.

Experiment [9] concerns the target T4, human BTLA extracellular domain with …. The experiment in a line: BLI (Octet RED96), antibody on AHC biosensor, His-tag-huBTLA in solution. Here is the method: as §2
(§3) Binding affinities (monovalent Kd) of humanized anti-BTLA antibodies were determined using Biolayer interferometry on the Octet RED96 instrument (ForteBio) as described above in Example 3, except for (c) association with His-tag-huBTLA ([…]) for 420 sec.

Experiment [10] shares this target. The experiment in a line: BLI (Octet RED96), antibody on AHC biosensor, His-tag-huBTLA in solution; column head prints nM, but Koff/Kon shows the values are in M. Here is the method: as §2, §3
In experiment [11] the target is T3, human BTLA (Uniprot Q7Z6A9) expressed …. Kind of experiment: flow cytometry blocking assay on huBTLA-overexpressing Expi293 cells, antibody titrated, soluble human HVEM-mouse IgG2a Fc detected. The method, then: Expi293 cells stably overexpressing huBTLA were incubated with chimeric anti-BTLA antibody 83F2 or 86B7 for 30 minutes at 4° C. The cells were washed, and then incubated with human HVEM-mouse IgG2a Fc recombinant protein (Acro Biosystems, cat #HVM-H5255) at […] concentration for 20 minutes at 4° C. The human HVEM bindings were detected by goat anti-mouse Alexa 488 secondary antibody (ThermoFisher, cat #A-11029). Cells were washed and acquired by flow cytometry with Attune. Data were analyzed with FlowJo software. BTLA binding is represented as MFI.
FACS based blocking assays of humanized anti-BTLA antibodies were performed as described above in Example 3.

Experiment [12] has as its target T6, extracellular domain of human BTLA with FAS, expressed on Jurkat cells (human, UniProt Q7Z6A9 31-157; P25445 174-335, limits assumed).
T6 sequence (looked up): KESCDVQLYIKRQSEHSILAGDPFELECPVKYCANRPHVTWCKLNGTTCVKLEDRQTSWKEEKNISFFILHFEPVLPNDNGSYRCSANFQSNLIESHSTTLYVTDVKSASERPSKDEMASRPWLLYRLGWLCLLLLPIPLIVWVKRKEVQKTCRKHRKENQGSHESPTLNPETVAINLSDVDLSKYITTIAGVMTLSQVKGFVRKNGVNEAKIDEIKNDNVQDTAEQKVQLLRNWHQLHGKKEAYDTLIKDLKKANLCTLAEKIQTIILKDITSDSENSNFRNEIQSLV
The experiment in a line: cell-based or functional assay.

In experiment [13] the target is T3, human BTLA (Uniprot Q7Z6A9) expressed …. The experiment in a line: cell-based or functional assay. This is another data set of the same source.

B1: chimeric anti-BTLA antibody 96F11 (antibody, V domains shown)
VH: EVQLQQSGAELVKPGASVELSCTASGFNIKDTYIYWVKQRPEQGLQWIGRIDPANGHTKYDPRFQDKATLTAEISSNTAHLQLNSLTSEDTAVYFCVRGGDHPYYVMDWWGQGTSVTVSS
VL: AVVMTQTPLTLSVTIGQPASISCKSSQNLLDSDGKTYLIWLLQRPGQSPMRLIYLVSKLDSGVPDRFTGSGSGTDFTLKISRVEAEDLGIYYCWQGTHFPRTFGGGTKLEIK
As to B1, the “EC50 (read off the curve)” value in [1] is around 0.3 nM. In experiment [2], the EC50 is 0.0482 nM. The molecule further yielded an EC50 in experiment [3] of 0.057 nM. Also, the “EC50 of recovery of IL-2 production, Raji-HVEM/Jurkat-BTLA coculture” value in [4] amounted to 2.54 nM. Besides, the “EC50 (read off the curve)” value in experiment [5] is around 0.4 nM. In experiment [6], this molecule yielded a Kd of 1.18 nM, a koff of 0.000697 s⁻¹ and a kon of 607000 M⁻¹ s⁻¹. The molecule further came in with a half-maximal inhibitory concentration (IC50) in [7] of 1.04 nM.

B2: humanized anti-BTLA antibody SB2003-4 (antibody, V domains shown)
VH: QITLKESGPTLVKPTQTLTLTCTFSGFSLSTFGMGVSWIRQPPGKALEWLAHIYWDDDKRFNPSLKSRLTITKDTSKNQVVLTMTNMDPVDTATYYCARGNWDGETYFDYWGQGTLVTVSS
VL: DVVMTQSPLSLPVTLGQPASISCKSTQSLLDSDGKTYLNWLQQRPGQSPRSLIYLVSKLDSGVPDRFSGSGSGTDFTLKISRVEAEDVGVYYCWQGTHFPWTFGQGTKVEIK
As to B2, the half-maximal effective concentration (EC50 (read off the curve)) in [8] is around 0.8 nM. In experiment [9], this molecule gave a koff of 9.19e-05 s⁻¹ and a kon of 307000 M⁻¹ s⁻¹. This molecule registered a Kd in experiment [10] of 0.312 nM. The “IC50 (read off the curve)” value in [11] is around 0.4 nM.

B3: humanized anti-BTLA antibody SB2003-11 (antibody, V domains shown)
VH: B2 VH with I2V, R99H
VL: B2 VL with L41F
B3: in experiment [8], the “EC50 (read off the curve)” value is around 0.8 nM. In experiment [9], this molecule had a koff of 4.99e-05 s⁻¹ and a kon of 384000 M⁻¹ s⁻¹. Further, the “EC50 of inhibition of huHVEM-Fc-induced apoptosis, Jurkat-huBTLA-FAS cells (ATP luminescence)” value in experiment [12] amounted to 0.117 nM. This molecule also had a Kd in [10] of 0.128 nM. For the same molecule, the “IC50 (read off the curve)” value in experiment [11] was around 0.4 nM. In addition, in experiment [13], the “EC50 of recovery of IL-2 production, Raji-HVEM/primary human T cell coculture” value amounted to 2.31 nM.

B4: humanized anti-BTLA antibody SB2003-7 (antibody, V domains shown)
VH: B2 VH with I2V
VL: B2 VL with L41F
In experiment [9], B4 yielded a koff of 5.76e-05 s⁻¹ and an on-rate constant (kon) of 366000 M⁻¹ s⁻¹. Besides, the Kd in experiment [10] turned out to be 0.154 nM.

B5: humanized anti-BTLA antibody SB2003-10 (antibody, V domains shown)
VH: B2 VH with R99H
VL: B2 VL
For B5, in experiment [9], the koff was 0.000179 s⁻¹ and the kon came to 356000 M⁻¹ s⁻¹. For the same molecule, in [10], binding was characterised by a dissociation constant (Kd) of 0.551 nM.

B6: humanized anti-BTLA antibody SB2003-3 (antibody, V domains shown)
VH: B2 VH
VL: B2 VL with L41F
Consider B6, for which the half-maximal effective concentration (EC50 (read off the curve)) in experiment [8] is around 0.8 nM. Also, in [9], the koff worked out at 9.48e-05 s⁻¹ and the kon is 291000 M⁻¹ s⁻¹. Further, the Kd in experiment [10] turned out to be 0.308 nM. For the same molecule, in experiment [11], the “IC50 (read off the curve)” value is around 0.4 nM.

B7: humanized anti-BTLA antibody SB2003-9 (antibody, V domains shown)
VH: B2 VH with R99H
VL: B2 VL with L41F
Take B7: in experiment [9], the off-rate constant (koff) stood at 6.5e-05 s⁻¹ and the on-rate constant (kon) came to 440000 M⁻¹ s⁻¹. Besides, the Kd in [10] is 0.148 nM.

B8: humanized anti-BTLA antibody SB2003-6 (antibody, V domains shown)
VH: B2 VH with I2V
VL: B2 VL with S51R
In experiment [9], B8 gave a koff of 8.06e-05 s⁻¹ and a kon of 134000 M⁻¹ s⁻¹. The Kd in experiment [10] was found to be 0.604 nM.

B9: humanized anti-BTLA antibody SB2003-2 (antibody, V domains shown)
VH: B2 VH
VL: B2 VL with S51R
In [9], B9 registered an off-rate constant (koff) of 0.000109 s⁻¹ and a kon of 120000 M⁻¹ s⁻¹. Moreover, in [10], the Kd amounted to 0.797 nM.

B10: humanized anti-BTLA antibody SB2003-8 (antibody, V domains shown)
VH: B2 VH with I2V
VL: B2 VL
In experiment [9], B10 gave a koff of 8.05e-05 s⁻¹ and a kon of 418000 M⁻¹ s⁻¹. Also, the Kd in experiment [10] was found to be 0.198 nM.
